Measurements from paper doi:10.1101/2025.07.15.665002 (bioRxiv, 2025).

Target: the molecule itself
Test: SAXS

| Protein | stoichiometry N |
| --- | --- |
| human cytosolic malate dehydrogenase, splice variant 3 (hMDH1V3) (enzyme, UniProt P40925-3 1-352, looked up) MGRRCSYFPKDVTVFDKDDKSEPIRVLVTGAAGQIAYSLLYSIGNGSVFGKDQPIILVLLDITPMMGVLDGVLMELQDCALPLLKDVIATDKEDVAFKDLDVAILVGSMPRREGMERKDLLKANVKIFKSQGAALDKYAKKSVKVIVVGNPANTNCLTASKSAPSIPKENFSCLTRLDHNRAKAQIALKLGVTANDVKNVIIWGNHSSTQYPDVNHAKVKLQGKEVGVYEALKDDSWLKGEFVTTVQQRGAAVIKARKLSSAMSAAKAICDHVRDIWFGTPEGEFVSMGVISDGNSYGVPDDLLYSFPVVIKNKTWKFVEGLPINDFSREKMDLTAKELTEEKESAFEFLSSA | 2 |
| human mitochondrial malate dehydrogenase (hMDH2), wild type (enzyme, UniProt P40926-1 25-338, looked up) AKVAVLGASGGIGQPLSLLLKNSPLVSRLTLYDIAHTPGVAADLSHIETKAAVKGYLGPEQLPDCLKGCDVVVIPAGVPRKPGMTRDDLFNTNATIVATLTAACAQHCPEAMICVIANPVNSTIPITAEVFKKHGVYNPNKIFGVTTLDIVRANTFVAELKGLDPARVNVPVIGGHAGKTIIPLISQCTPKVDFPQDQLTALTGRIQEAGTEVVKAKAGAGSATLSMAYAGARFVFSLVDAMNGKEGVVECSFVKSQETECTYFSTPLLLGKKGIEKNLGIGKVSSFEEKMISDAIPELKASIKKGEDFVKTLK | 2 |
